The values below come from US20160243521A1.

The target in assay [1] is human polyclonal IgG (Gamma-globulin NICHIYAKU, NIHON PHARMACEUTICAL CO., LTD.) (human). The assay can be described thus: column dynamic binding capacity at 5% breakthrough, residence time 3 min (Test example 2); Protein A 35 g/L on cellulose beads made with crosslinking agent EX-314.
Assay [2] has the same target. The assay can be described thus: column dynamic binding capacity at 5% breakthrough, residence time 3 min (Test example 2); Protein A 35 g/L on cellulose beads made without crosslinking agent in the dispersion.

On to “non-orientation-controlled Protein A (from UniProt P38507 37-327) (ligand)”, for which the values for the 5% DBC at RT of 3 min (g per 1 L of the filling adsorbent) in assay [1] and in assay [2] were 65 and 49, respectively.
